One molecule from patent US20030144495, “Drosophila recombination-associated protein and methods for use” (Albert Einstein College of Medicine of Yeshiva University, published 2003) can be followed below.

The target in the data set is RecA (Escherichia coli, UniProt P0A7G6 P0A7G6:2-353). The experiment in a line: EMSA; gel shift in presence of ATP-gamma-S, 20 mM Tris pH 7.35, 10 mM MgCl2, 37 C. As to conditions: tags: commercial, Promega/Pharmacia/USB; label: 5'-32P. As for the experimental part:
Any oligonucleotide may be used for this assay. For this experiment, an oligonucleotide (33-mer) derived from the central portion of the pUC19 poly linker 5′-[…]-3′ [SEQ ID NO: 20] was endlabeled at the 5′ end with ³²P-ATP using T4 polynucleotide kinase. The oligonucleotide was purified on Qiaquick columns using buffer PN (Qiagen) and the OD at 260 nm indicated a concentration of 5 ng/μl. Any oligonucleotide sequence may be used in this experiment. The SEQ ID NO: 16 oligonucleotide was incubated with 60 ng of DRAP or RecA in various buffers for 30 minutes at 37° C. A loading buffer was added and the material separated on a 6% 1×TAE, polyacrylamide minigel at 250 V for 14 minutes. The gel was dried and exposed to film with one intensifying screen for ˜16 hrs. at −80° C. No degradation of the oligonucleotide was observed. (FIG. 8.) Gel shifting with RecA in the presence of […] is consistent with the known properties of that protein.
Background: A gel shift assay detects complexes by their altered migration in electrophoresis.

RecA, sequence (P0A7G6 2-353, one chain of several): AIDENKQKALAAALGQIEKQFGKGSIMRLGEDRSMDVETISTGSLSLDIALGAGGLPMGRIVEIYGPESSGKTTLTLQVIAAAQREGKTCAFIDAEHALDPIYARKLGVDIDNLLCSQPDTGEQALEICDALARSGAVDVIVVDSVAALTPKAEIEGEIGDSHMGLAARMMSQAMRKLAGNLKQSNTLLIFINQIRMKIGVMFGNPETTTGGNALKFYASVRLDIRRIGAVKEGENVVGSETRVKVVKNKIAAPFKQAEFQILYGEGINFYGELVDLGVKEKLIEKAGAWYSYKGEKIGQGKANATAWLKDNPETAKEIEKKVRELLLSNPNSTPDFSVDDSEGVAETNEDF

Turning to GGTACCCGGGGATCCTCTAGAGTCGACCTGCAG (ssDNA) [pUC19 polylinker 33-mer], the binding result is given as “binds”.
